The record followed here is patent publication US20020155121A1.

Assay [1] concerns the target CCR5 expressed on cells (L1.2/R5, Cf2Th-R5, U373/CD4/CCR5) (UniProt P51681). The assay can be described thus: flow cytometry on L1.2/R5 cells.
The target in assay [2] is CXCR4 expressed on cells (L1.2/X4, U373/CD4/CXCR4) (UniProt P61073). The assay can be described thus: cell-based or functional assay.
For assay [3], the target named is CCR5 expressed on cells (L1.2/R5, Cf2Th-R5, U373/CD4/CCR5) (UniProt P51681). The assay can be described thus: cell-based or functional assay.

UniProt P61073, sequence (P61073 whole entry): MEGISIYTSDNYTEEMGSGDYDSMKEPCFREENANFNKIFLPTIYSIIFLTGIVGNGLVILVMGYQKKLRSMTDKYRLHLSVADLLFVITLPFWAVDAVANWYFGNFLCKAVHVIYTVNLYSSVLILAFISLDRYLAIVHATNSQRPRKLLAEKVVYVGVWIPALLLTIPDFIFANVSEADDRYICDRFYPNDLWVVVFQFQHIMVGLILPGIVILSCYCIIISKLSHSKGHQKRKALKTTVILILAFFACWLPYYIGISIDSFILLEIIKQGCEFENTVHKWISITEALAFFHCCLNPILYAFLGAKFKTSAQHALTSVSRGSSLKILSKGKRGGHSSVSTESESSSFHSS
UniProt P51681, sequence (P51681 whole entry): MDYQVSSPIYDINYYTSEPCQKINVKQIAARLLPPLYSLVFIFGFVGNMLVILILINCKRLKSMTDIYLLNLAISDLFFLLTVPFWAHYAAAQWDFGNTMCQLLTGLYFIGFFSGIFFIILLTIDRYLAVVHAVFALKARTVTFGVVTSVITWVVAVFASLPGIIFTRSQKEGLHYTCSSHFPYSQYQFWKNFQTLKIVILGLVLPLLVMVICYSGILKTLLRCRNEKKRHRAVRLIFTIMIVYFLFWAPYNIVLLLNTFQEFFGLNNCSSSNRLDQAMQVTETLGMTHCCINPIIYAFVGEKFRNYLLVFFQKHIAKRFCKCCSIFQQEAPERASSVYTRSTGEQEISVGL

Take “full-length single chain (FLSC) gp120-CD4 chimeric polypeptide (other; other documents disagree on this pair)”: the concentration of maximal binding in assay [1] is 10 µg/mL.

As for “gp120-CD4-IgG1 chimeric polypeptide (Fc fusion)”, in assay [2], the ID90 (µg/mL), neutralization of 89.6 on U373/CD4/CXCR4 is > 10 µg/mL; the ID90 (µg/mL), neutralization of 2005 on U373/CD4/CXCR4 is > 10 µg/mL; the ID90 (µg/mL), neutralization of 2044 on U373/CD4/CXCR4 is > 10 µg/mL. In assay [3], the ID90 (µg/mL), neutralization of 89.6 on U373/CD4/CCR5 amounted to 3.56 µg/mL; the ID90 (µg/mL), neutralization of ADA on U373/CD4/CCR5 amounted to 4.58 µg/mL; the ID90 (µg/mL), neutralization of BaL on U373/CD4/CCR5 came to 3.1 µg/mL.

“truncated single chain (TcSC) gp120-CD4 chimeric polypeptide (other; other documents disagree on this pair)”: in assay [1], the fold higher concentration than FLSC to approach saturation binding is 10 fold.
